# Reference: patent US20170204454A1 (THERMO FISHER SCIENTIFIC BALTICS UAB, published 2017)
# T1: Pyrococcus DNA polymerase with a sequence non-specific DNA binding domain (Pyrococcus)
# T1 chain: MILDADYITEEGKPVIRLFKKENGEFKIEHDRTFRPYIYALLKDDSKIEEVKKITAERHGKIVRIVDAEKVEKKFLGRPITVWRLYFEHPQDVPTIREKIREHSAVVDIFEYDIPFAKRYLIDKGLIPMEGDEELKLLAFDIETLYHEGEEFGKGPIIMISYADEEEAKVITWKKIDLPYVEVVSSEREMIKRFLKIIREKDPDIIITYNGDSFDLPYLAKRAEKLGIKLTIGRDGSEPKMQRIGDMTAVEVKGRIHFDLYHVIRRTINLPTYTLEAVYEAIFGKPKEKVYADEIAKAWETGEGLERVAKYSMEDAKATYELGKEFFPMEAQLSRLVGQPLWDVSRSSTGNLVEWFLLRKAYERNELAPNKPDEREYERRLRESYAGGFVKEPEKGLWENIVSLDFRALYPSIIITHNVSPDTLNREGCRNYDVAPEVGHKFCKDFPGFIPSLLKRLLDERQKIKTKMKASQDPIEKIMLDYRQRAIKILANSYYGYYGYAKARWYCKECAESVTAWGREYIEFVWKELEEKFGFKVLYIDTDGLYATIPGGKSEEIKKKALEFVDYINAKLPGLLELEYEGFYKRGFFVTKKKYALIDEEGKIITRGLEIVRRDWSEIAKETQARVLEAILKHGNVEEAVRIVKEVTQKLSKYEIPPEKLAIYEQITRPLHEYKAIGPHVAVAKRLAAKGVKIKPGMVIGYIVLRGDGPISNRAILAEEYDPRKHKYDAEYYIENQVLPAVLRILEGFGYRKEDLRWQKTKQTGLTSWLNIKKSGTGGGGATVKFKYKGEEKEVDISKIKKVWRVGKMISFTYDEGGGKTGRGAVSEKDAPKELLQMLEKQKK
# B1: 5D3 (antibody, V domains shown)
# VH: SGPGLVAPSQSLSITCTVSGFSLTDYGVSWVRQSPGQGLEWLGIIWGDGSTDYHSSLISRLRISKDNSKSQVFLKLNSLQTDDTATYYCARPVIGNYAMDYWGQG
# VL: TQSPASLAVSLGQRATISCRASESVEYYGTRLMQWYQQKPGKAPKLLIYGASNVESGVPARFSGSGSGTDFSLNIHPVEEDDFAMYFCQQSRKVPWTFGGG
# notes: also called 5D3 antibody
# What was measured:
# [1] = target: T1, Pyrococcus DNA polymerase with a …; experiment: cell-based or functional assay
# [2] = target: T1, Pyrococcus DNA polymerase with a …; experiment: indirect ELISA, apparent dissociation constant
# Experimental: The affinity of monoclonal antibodies was determined by measuring their apparent dissociation constants (kD) by an indirect ELISA (Table 2).
binder,measurement,setting,value
B1,Inhibition of exonuclease activity,[1],71 molar ratio enzyme:antibody (1:x)
same,Inhibition of polymerase activity,[1],20 molar ratio enzyme:antibody (1:x)
same,Kd,[2],290 pM
